Laboratory results from patent publication US20170081412A1 (MITSUBISHI TANABE PHARMA, published 2017).

How the values were obtained:
recombinant human IL-6R [1] = biological target: T1, recombinant human IL-6R (human, UniProt P08887 20-365); test: SPR: antibody captured on an amine-coupled anti-human antibody (GLM chip), recombinant human IL-6R flowed as analyte
T1 construct: The sandwich ELISA used a His-tagged form; also called soluble IL-6R; His-tagged human IL-6R
T1 sequence: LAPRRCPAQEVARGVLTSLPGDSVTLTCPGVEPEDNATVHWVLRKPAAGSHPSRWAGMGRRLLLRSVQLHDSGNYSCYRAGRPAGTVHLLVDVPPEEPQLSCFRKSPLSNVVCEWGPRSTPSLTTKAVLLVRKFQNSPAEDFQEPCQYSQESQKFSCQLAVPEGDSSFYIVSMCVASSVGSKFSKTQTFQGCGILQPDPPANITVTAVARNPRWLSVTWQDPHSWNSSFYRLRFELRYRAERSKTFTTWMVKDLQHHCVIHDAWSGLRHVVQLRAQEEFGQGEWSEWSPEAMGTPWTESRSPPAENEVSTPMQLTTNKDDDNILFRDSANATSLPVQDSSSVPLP
Excerpt: (§1) To determine the affinity and kinetic parameters of FynomAb binding to human IL-17A and human IL-6R, an anti-human antibody was amine coupled to a GLM chip.

recombinant human IL-6R [2] = biological target: T1, recombinant human IL-6R; test: SPR (representative sensorgram with fit): antibody captured on an amine-coupled anti-human antibody (GLM chip), recombinant human IL-6R flowed as analyte
Excerpt: as §1

recombinant human IL-6R [3] = biological target: T1, recombinant human IL-6R; test: SPR, binder captured by anti-human antibody on GLM chip, IL-6R as analyte; average of 4 experiments; column head prints nM, value taken as M
Excerpt: as §1

recombinant human IL-6R [4] = biological target: T1, recombinant human IL-6R; test: SPR, binder captured by anti-human antibody on GLM chip, IL-6R as analyte; average of 4 experiments
Excerpt: as §1

recombinant human IL-6R [5] = biological target: T1, recombinant human IL-6R; test: SPR (representative sensorgram with fit): antibody captured on an amine-coupled anti-human antibody (GLM chip), recombinant human IL-6R flowed as analyte; remark: listed apart in the source
Excerpt: as §1

[6] = biological target: T2, human IL-6R on the surface of HEK Blue IL-6 cells (human, UniProt P08887 20-468); test: flow cytometry: HEK-Blue IL-6 cells (IL-6R+), drug titrated about 0.005-300 nM, detected with anti-human IgG-Alexa488
T2 construct: HEK Blue IL-6 cells (Invivogen); also called cell surface IL-6R; HEK-Blue-IL6 cells (IL6R+)
T2 sequence: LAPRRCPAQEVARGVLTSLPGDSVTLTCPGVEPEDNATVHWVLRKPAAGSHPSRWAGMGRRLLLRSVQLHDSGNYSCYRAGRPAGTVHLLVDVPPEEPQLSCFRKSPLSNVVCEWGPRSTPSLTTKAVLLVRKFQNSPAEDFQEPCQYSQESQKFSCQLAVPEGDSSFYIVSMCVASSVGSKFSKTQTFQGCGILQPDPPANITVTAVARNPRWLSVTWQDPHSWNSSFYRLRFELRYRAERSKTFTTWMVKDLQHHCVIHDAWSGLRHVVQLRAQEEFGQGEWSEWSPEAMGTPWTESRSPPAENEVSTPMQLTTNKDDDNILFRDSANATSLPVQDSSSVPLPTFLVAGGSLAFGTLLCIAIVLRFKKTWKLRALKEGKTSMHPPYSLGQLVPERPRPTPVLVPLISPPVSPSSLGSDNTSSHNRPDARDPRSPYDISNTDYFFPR

recombinant human IL-17A = biological target: T3, recombinant human IL-17A (human, UniProt Q16552 24-155, limits assumed); test: SPR: antibody captured on an amine-coupled anti-human antibody (GLM chip), recombinant human IL-17A flowed as analyte
T3 construct: In the flow cytometry assay it was biotinylated; also called soluble IL-17A
Excerpt: as §1

recombinant human IL-6R [7] = biological target: T1, recombinant human IL-6R; test: SPR, binder captured by anti-human antibody on GLM chip, IL-6R as analyte; average of 6 experiments
Excerpt: as §1

recombinant human IL-6R [8] = biological target: T1, recombinant human IL-6R; test: SPR, binder captured by anti-human antibody on GLM chip, IL-6R as analyte; average of 6 experiments; column head prints nM, value taken as M
Excerpt: as §1

T3 sequence (Q16552 24-155 limits assumed): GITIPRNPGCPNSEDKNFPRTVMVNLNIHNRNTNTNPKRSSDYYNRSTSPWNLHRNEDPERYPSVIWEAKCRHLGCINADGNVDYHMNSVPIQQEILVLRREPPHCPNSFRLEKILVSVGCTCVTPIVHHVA

B1: secukinumab (antibody, human IgG1, kappa, V domains shown)
VH: EVQLVESGGGLVQPGGSLRLSCAASGFTFSNYWMNWVRQAPGKGLEWVAAINQDGSEKYYVGSVKGRFTISRDNAKNSLYLQMNSLRVEDTAVYYCVRDYYDILTDYYIHYWYFDLWGRGTLVTVSS
VL: not shown
- binding result (recombinant human IL-6R [1]): no binding

B2: tocilizumab (produced in house in CHO cells) (antibody, human IgG1, kappa)
heavy: not shown
light: not shown
notes: also called parental antibody
- Kd (recombinant human IL-6R [2]): 0.41 nM
- koff (recombinant human IL-6R [2]): 0.000189 s⁻¹
- kon (recombinant human IL-6R [2]): 461000 M⁻¹ s⁻¹
- Kd (recombinant human IL-6R [3]): 0.417 nM
- koff (recombinant human IL-6R [4]): 0.000186 s⁻¹
- kon (recombinant human IL-6R [4]): 473000 M⁻¹ s⁻¹
- Kd (recombinant human IL-6R [5]): 0.467 nM
- koff (recombinant human IL-6R [5]): 0.000199 s⁻¹
- kon (recombinant human IL-6R [5]): 427000 M⁻¹ s⁻¹
- EC50 (read off the curve) [6]: ~1 nM
- binding result (recombinant human IL-17A): no binding

B3: Actemra (commercial tocilizumab) (antibody, human IgG1, kappa)
heavy: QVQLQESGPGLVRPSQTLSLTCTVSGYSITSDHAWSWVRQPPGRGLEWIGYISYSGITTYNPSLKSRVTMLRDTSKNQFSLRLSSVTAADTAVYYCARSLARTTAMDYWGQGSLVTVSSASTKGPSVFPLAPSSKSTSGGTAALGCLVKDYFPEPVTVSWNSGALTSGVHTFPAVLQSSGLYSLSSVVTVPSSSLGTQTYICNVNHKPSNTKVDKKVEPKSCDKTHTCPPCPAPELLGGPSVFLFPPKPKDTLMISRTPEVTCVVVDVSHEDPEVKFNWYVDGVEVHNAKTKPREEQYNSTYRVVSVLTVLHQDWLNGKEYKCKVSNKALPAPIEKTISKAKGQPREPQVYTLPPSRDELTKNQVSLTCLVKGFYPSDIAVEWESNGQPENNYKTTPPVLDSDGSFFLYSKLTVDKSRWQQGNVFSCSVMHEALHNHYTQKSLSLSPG
light: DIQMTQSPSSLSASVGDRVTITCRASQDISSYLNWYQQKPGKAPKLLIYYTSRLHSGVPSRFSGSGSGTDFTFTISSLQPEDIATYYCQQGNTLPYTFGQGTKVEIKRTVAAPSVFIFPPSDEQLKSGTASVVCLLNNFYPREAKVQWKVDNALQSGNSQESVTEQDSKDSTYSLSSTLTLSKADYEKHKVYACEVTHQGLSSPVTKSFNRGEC
notes: also called commercial Actemra; commercial grade Actemra
- koff (recombinant human IL-6R [7]): 0.000191 s⁻¹
- kon (recombinant human IL-6R [7]): 413000 M⁻¹ s⁻¹
- Kd (recombinant human IL-6R [8]): 0.499 nM
- Kd (recombinant human IL-6R [5]): 0.467 nM
- koff (recombinant human IL-6R [5]): 0.000195 s⁻¹
- kon (recombinant human IL-6R [5]): 417000 M⁻¹ s⁻¹
- binding result (recombinant human IL-17A): no binding
